Consider one substance from patent publication US12366576B2, “Compositions, assays, and methods for direct modulation of fatty acid metabolism” (Dana-Farber Cancer Institute, Inc., priority 2016, dated 2025).

The target in this experiment is T1, VLCAD (Homo sapiens, UniProt P49748).
T1 construct: 10x His (N); made in house; host or cells: E. coli BL21(DE3), pET19b
T1 sequence (P49748 40-655): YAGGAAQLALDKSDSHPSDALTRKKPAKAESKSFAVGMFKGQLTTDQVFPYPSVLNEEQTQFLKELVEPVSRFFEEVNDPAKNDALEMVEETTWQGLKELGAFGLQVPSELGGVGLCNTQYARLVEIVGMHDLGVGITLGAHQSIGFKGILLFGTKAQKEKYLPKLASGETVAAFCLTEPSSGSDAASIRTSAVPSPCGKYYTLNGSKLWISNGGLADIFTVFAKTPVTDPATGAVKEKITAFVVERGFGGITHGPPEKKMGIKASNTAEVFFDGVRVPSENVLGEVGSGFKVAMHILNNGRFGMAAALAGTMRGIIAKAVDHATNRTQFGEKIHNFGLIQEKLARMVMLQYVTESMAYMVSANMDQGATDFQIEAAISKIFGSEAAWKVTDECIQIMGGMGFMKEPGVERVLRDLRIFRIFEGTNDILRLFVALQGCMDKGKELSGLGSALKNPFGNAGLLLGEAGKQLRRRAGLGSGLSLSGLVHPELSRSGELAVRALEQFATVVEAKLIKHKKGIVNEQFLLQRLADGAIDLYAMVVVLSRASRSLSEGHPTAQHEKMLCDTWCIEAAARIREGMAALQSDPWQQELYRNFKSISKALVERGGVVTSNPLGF
The experiment is described as follows: In vitro VLCAD enzymatic activity assay (palmitoyl-CoA, ferrocenium hexafluorophosphate). Type of experiment: biochemical. The note with it: 0.75 μM VLCAD pre-incubated overnight at 4° C. with 75 μM SAHB; substrate palmitoyl-CoA. Here is the method:
To assess whether the direct MCL-1/VLCAD binding interaction influences VLCAD enzymatic activity, an in vitro enzymatic activity assay was conducted. Recombinant VLCAD was incubated with its substrate (palmitoyl-CoA) and ferrocenium hexafluorophosphate, a strong electrophile. As VLCAD acts upon its substrate and oxidizes it, the ferrocenium hexafluorophosphate is reduced, causing a change in absorbance that is readily measured.
VLCAD. Mature human VLCAD lacking its cleavable leader sequence (aa 40-655) (NP_000009.1) was subcloned into the pET19b vector (Novagen) using NdeI and XhoI restriction sites. Correct insertion was confirmed by DNA sequencing. […]
VLCAD enzymatic activity was measured as previously described (see, e.g., Doulias et al., Sci Signal, 6(256):rs1 (2013); Lehman et al., Anal. Biochem., 186(2):280-284 (1990)). […] Where VLCAD activity was assessed in the presence of MCL-1 SAHBs, 0.75 μM VLCAD was incubated overnight at 4° C. with 75 μM SAHB and the protein-peptide mixture was used to initiate the ferrocenium reaction. Decrease in ferrocenium absorbance as a function of time at 300 nm was recorded and the initial velocity (V0) was calculated in units of U/mg using the molar absorptivity of ferrocenium (ε=4.3 mM^−1 cm^−1 at 300 nm) (see, e.g., Izai et al.). […]

Bridge positions count the residues as written; N and C are the ends. Square brackets hold non-standard residues; d marks the D form. Ends that are not written are not given here. S5 = C=CCCC[C@](C)(N)C(=O)O

Consider “MCL-1 SAHBD: hydrocarbon-stapled peptide mimicking the MCL-1 BH3 domain (Stabilized Alpha-Helix of BCL-2 Domain), SEQ ID NO:19 (RKALETLRRVGDGV[S5]RNH[S5]TAF; staple 15-19)”, for which the “effect on VLCAD enzymatic activity” value is given as “caused a decrease in enzymatic activity”.
